Source: paper doi:10.1101/575910 (bioRxiv, 2019)

Assays:
[1] = molecular target: N-terminal region of Cul3 (Cul3a residues 1-379) (zebrafish, UniProt F6NVK8 1-379); test: MST
[2] = molecular target: Cul3 NTD lacking the first 18 amino acids (zebrafish, UniProt F6NVK8 19-379); test: MST

Binder | Kd [1] [nM] | Kd [2] [nM]
BTB-BACK fragment of Btbd6 (Btbd6a residues 119-361) (domain or fragment, NT-647 amine-reactive dye (RED-NHS kit) where used as the labelled partner in MST) SAHPTLRERNALMFNNEQMADVHFIVGPPGESQRVPAHKYVLAVGSSVFCAMFYGDLAEGDSDIHIPDVEPAAFLILLKYMYSDEIELAPDTVLATLYAAKKYLVSALARACVGFLETSLEARNACVLLSQSRLFEEPELTQRCWEVIDAQAELALRSEGFSEIDLPTLESILHRETLNVKESVVFQAVLGWADAECRRQGLSPTSQNQRSVLGKALHLVRLPSMTLQEFADGAAQVDILTLE | 12 | 
BTB domain of Plzf (Plzfa residues 8-126) (domain or fragment, NT-647 amine-reactive dye (RED-NHS kit) where used as the labelled partner in MST) MIQLQNPNHPNALLHKANQMRLAGTLCDVVIMVDSQEFHAHRTVLACTSKMFEILFHRNSQHYTLDFLSPKTFQQILEYAYTATLQAKVEDLDDLLYAAEILEIEYLEEQCLKILETIQ | 2900 | ≥ 20000
